Molecular target: the molecule itself
Assay: SEC

B1: SMG-9 (natural protein)
chain: MSESGHSQPGLYGIERRRRWKEPGSGGPQNLSGPGGRERDYIAPWERERRDASEETSTSVMQKTPIILSKPPAERSKQPPPPTAPAAPPAPAPLEKPIVLMKPREEGKGPVAVTGASTPEGTAPPPPAAPAPPKGEKEGQRPTQPVYQIQNRGMGTAAPAAMDPVVGQAKLLPPERMKHSIKLVDDQMNWCDSAIEYLLDQTDVLVVGVLGLQGTGKSMVMSLLSANTPEEDQRTYVFRAQSAEMKERGGNQTSGIDFFITQERIVFLDTQPILSPSILDHLINNDRKLPPEYNLPHTYVEMQSLQIAAFLFTVCHVVIVVQDWFTDLSLYRFLQTAEMVKPSTPSPSHESSSSSGSDEGTEYYPHLVFLQNKARREDFCPRKLRQMHLMIDQLMAHSHLRYKGTLSMLQCNVFPGLPPDFLDSEVNLFLVPFMDSEAESENPPRAGPGSSPLFSLLPGYRGHPSFQSLVSKLRSQVMSMARPQLSHTILTEKNWFHYAARIWDGVRKSSALAEYSRLLA
Question: How did the “stoichiometry N” value turn out when B1 was run?
Answer: ~2
